We go through four substances from patent US20190345535A1.

Common to all, as to test: cell-based or functional assay
Experiment [1] concerns the target GFP^2-Pflu1-RLuc2 fusion protein (Pflu sensor 1).
The target of experiment [2] is GFP^2-plas1-RLuc2 fusion protein (BRET^2 plasmin sensor).
Experiment [3] has as its target GFP^2-Pflu-H3-RLuc2 fusion protein.
In experiment [4] the target is GFP^2-Pflu2-RLuc2 fusion protein (Pflu sensor 2).
For experiment [5], the target named is GFP^2-Pflu3-RLuc2 fusion protein (Pflu sensor 3).

Chain of bovine plasmin (Sigma) (P06868 104-812 limits assumed): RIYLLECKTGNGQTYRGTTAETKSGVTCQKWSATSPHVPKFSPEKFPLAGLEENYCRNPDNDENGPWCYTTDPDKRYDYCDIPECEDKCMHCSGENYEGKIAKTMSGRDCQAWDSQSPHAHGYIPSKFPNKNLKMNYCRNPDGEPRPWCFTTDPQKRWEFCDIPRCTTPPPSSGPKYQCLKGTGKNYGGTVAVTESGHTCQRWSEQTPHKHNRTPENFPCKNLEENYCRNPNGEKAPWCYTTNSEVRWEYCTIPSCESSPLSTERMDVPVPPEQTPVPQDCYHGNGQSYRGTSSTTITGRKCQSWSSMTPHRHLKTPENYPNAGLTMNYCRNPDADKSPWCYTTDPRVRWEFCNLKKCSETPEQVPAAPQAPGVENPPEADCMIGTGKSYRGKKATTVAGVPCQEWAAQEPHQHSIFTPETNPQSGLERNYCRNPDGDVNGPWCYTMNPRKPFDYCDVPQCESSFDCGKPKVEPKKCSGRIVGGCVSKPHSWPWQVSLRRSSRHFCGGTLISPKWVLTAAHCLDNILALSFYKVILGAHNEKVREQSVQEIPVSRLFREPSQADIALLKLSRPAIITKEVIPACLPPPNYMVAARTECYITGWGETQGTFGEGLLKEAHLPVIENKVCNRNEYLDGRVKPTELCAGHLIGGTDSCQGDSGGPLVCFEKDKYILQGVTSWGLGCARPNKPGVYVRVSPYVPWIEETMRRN
Chain of human plasmin (Sigma) (P00747 97-810 limits assumed): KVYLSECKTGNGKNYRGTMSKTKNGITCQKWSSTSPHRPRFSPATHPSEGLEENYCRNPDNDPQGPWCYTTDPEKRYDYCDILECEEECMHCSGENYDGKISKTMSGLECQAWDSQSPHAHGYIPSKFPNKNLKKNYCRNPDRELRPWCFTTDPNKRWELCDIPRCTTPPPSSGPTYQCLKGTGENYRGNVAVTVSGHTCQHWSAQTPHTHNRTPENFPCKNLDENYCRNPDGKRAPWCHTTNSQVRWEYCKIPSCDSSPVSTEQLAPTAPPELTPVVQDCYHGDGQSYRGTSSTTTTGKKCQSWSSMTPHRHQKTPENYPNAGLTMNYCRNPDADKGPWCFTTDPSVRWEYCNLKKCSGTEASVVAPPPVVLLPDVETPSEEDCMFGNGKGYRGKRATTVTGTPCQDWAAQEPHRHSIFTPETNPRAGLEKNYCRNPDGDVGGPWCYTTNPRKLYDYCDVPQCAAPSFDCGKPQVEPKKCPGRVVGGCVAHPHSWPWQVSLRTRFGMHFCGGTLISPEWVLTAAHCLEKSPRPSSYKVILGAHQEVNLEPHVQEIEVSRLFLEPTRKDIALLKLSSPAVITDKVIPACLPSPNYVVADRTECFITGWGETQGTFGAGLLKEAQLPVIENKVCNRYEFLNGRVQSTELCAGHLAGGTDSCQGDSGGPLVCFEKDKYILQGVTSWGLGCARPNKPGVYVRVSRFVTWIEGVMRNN

For “bovine plasmin (Sigma) (from UniProt P06868 97-805) (enzyme)”, the results for the EC50, BRET^2 response, 50% full fat UHT milk in experiment [1] and in experiment [2] were 169 nM and 108 nM, respectively. Further, the EC50, BRET^2 response, raw milk in experiment [3] is 174 nM.
On to “crude bacterial protease from Pseudomonas fluorescens strain 65 (enzyme)”, for which, in experiment [1], the EC50, BRET^2 response, 50% full fat UHT milk stood at 0.7 nM; the EC50, BRET^2 response, 50% full fat UHT milk, protease concentration by BSA standard was determined as 8.2 nM; the EC50, BRET^2 response, 50% raw milk, no pre-treatment, 10 mins. incubation was 0.14 nM; the EC50, BRET^2 response, 50% raw milk, no pre-treatment, 2 hrs incubation is 0.0339 nM. In experiment [1], the EC50, BRET^2 response, 50% raw milk, pre-treatment, 10 mins. incubation turned out to be 0.353 nM; the EC50, BRET^2 response, 50% raw milk, pre-treatment, 2 hrs incubation came out at 0.1 nM; the EC50, BRET^2 response, raw milk is 0.14 nM; the EC50, BRET^2 response, raw milk, protease concentration by BSA standard worked out at 1.63 nM. In experiment [4], the EC50, BRET^2 response, 50% full fat UHT milk was 2.6 nM and the EC50, BRET^2 response, 50% full fat UHT milk, protease concentration by BSA standard was 30.4 nM. In experiment [2], this substance registered an EC50, BRET^2 response, 50% full fat UHT milk of 50 nM; an EC50, BRET^2 response, 50% full fat UHT milk, protease concentration by BSA standard of 580 nM; an EC50, BRET^2 response, raw milk of 1.4 nM; an EC50, BRET^2 response, raw milk, protease concentration by BSA standard of 16.2 nM. Besides, in experiment [5], the EC50, BRET^2 response, 50% full fat UHT milk stood at 2.3 nM and the EC50, BRET^2 response, 50% full fat UHT milk, protease concentration by BSA standard is 26.4 nM. Besides, in experiment [3], the EC50, BRET^2 response, raw milk stood at 0.5 nM and the EC50, BRET^2 response, raw milk, protease concentration by BSA standard stood at 5.4 nM.
In experiment [1], “crude bacterial protease from Pseudomonas fluorescens strain 117 (enzyme)” showed an EC50, BRET^2 response, raw milk of 0.2 nM and an EC50, BRET^2 response, raw milk, protease concentration by BSA standard of 2.6 nM.
In the case of “human plasmin (Sigma) (from UniProt P00747 97-810) (enzyme)”, in experiment [1], the EC50, BRET^2 response, 50% full fat UHT milk was determined as 124 nM. In experiment [4], this substance gave an EC50, BRET^2 response, 50% full fat UHT milk of 926 nM. In addition, in experiment [2], the EC50, BRET^2 response, 50% full fat UHT milk came to 5.6 nM; the EC50, BRET^2 response, heat treated raw milk, one-step pre-treatment protocol was 24.2 nM; the EC50, BRET^2 response, heat treated raw milk, one-step pre-treatment with low power sonication amounted to 29.3 nM; the EC50, BRET^2 response, heat treated raw milk, pre-treatment protocol of Rauh et al. (2014) was determined as 19.5 nM. The EC50, BRET^2 response, heat treated raw milk, two-step pre-treatment protocol in experiment [2] stood at 16 nM. This substance also showed an EC50, BRET^2 response, 50% full fat UHT milk in experiment [5] of 1280 nM.
